We go through three molecules from patent US20080181899A1 (Regeneron, published 2008).

Positions count from the first letter of the chain named.

Assay [1] concerns the target T1, dimeric hDII4-hFc (human, UniProt Q9NR61 27-524, biotin in Example 3 (biotin-DII4-hFc), site not stated).
T1 construct: also called DII4-Fc; biotin-DII4-hFc; not shown: human Fc
Briefly: competition ELISA; antibody titrated against 30 pM biotin-DII4-hFc (1 hr); free biotin-DII4-hFc on Notch-hFc plate. As for the experimental part: The ability of the antibodies to block DII4 binding to Notch was evaluated with an ELISA-based immunoassay. Briefly, Notch-hFc recombinant protein was coated on a 96-well plate in PBS buffer overnight at 4° C. at […], and the nonspecific binding sites were blocked with BSA.

Assay [2] concerns the target T1, dimeric hDII4-hFc. In words: cell-based or functional assay.
The target of assay [3] is T2, chimeric DII4 protein #3 (human N-terminal, DSL, EGF-1 and EGF-2 domains, S27-Q283, in mouse DII4) fused to … (human; mouse, UniProt Q9JI71 285-525).
T2 construct: not shown: mouse IgG2a-Fc fragment
In words: SPR BIACORE; DII4 protein captured by anti-mouse IgG; antibody at 100 µg/ml. As for the experimental part: (§1) Briefly, each of the DII4 proteins was captured (240-470 RU) on goat anti-mouse IgG antibody surfaces, followed by injection of test antibody at a concentration of 100 μg/ml (Table 11).
In general terms: SPR reads the build-up and loss of mass on a sensor chip optically.

Assay [4] deals with T3, chimeric DII4 protein #5 (human N-terminal domain, S27-R172, in mouse DII4) fused to mouse IgG2a-Fc (human; mouse, UniProt Q9JI71 174-525).
T3 construct: not shown: mouse IgG2a-Fc fragment
The assay is described as above. As for the experimental part: as §1

Assay [5] concerns the target T4, chimeric DII4 protein #1 (human N-terminal and DSL domains, S27-Q218, in mouse DII4) fused to mouse IgG2a-Fc (human; mouse, UniProt Q9JI71 220-525).
T4 construct: Used as CHO-K1 conditioned medium; not shown: mouse IgG2a-Fc fragment
The assay is described as above. As to the method: as §1

The target of assay [6] is T5, chimeric DII4 protein #6 (human DSL domain, V173-Q218, in mouse DII4) fused to mouse IgG2a-Fc (mouse; human, UniProt Q9JI71 28-173; Q9JI71 220-525).
T5 construct: not shown: mouse IgG2a-Fc fragment
The description is as above. As for the experimental part: as §1

A further assay has as its target T6, mDII4-mFc (mouse, UniProt Q9JI71 28-525).
T6 construct: also called mouse DII4-mFc; not shown: mouse Fc
In words: SPR BIACORE; DII4 protein captured by anti-mouse IgG; antibody injected. As for the experimental part:
as §1

Assay [7] has as its target T7, monomeric hDII4 (human delta-like ligand 4) (human, UniProt Q9NR61 27-524).
T7 construct: also called monomeric DII4 protein
In words: SPR BIACORE; antibody captured by anti-hFc; monomer analyte. As to the method:
(§2) The binding affinities of selected purified antibodies to hDII4, M. facscicularis DII4 (mfDII4, SEQ IN NO:956), and M. mulatta DII4 (mmDII4, SEQ ID NO:957) monomers were determined using a BIACORE™ 2000 & 3000.

Assay [8] has as its target T8, M. facscicularis DII4 monomer (M. facscicularis, UniProt Q9NR61 27-524 (human entry)).
T8 construct: also called mfDII4
T8 chain: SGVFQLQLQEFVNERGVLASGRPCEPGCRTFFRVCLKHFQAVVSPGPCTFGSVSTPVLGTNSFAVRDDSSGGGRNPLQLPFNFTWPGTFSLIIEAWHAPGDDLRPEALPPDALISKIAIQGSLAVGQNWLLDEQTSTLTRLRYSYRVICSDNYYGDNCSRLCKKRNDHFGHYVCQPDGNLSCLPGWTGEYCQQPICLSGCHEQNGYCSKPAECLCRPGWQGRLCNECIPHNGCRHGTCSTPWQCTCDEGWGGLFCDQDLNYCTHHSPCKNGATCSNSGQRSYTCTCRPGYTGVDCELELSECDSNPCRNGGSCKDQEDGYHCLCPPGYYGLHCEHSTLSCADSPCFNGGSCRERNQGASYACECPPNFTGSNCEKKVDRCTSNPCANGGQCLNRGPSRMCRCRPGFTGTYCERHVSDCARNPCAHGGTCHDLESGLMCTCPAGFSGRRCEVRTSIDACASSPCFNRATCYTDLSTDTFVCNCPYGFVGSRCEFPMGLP
Described as above. As for the experimental part:
as §2

Another assay has as its target T9, M. mulatta DII4 monomer (M. mulatta, UniProt Q9NR61 27-524 (human entry)).
T9 construct: also called mmDII4
T9 chain: T8 chain with M495V
Described as above. As to the method:
as §2

B1: 318518-01A10-D8 (antibody, human IgG1)
heavy: not shown
VL: EIVMTQSPATLSLSPGERATLSCRASQSVSSYLAWYQQKPGQAPRLLIYDASNRATGIPARFSGSGSGTDFTLTISSLEPEDFAVYYCQHRSNWPPTFGGGTKVEIK
notes: HCVR 429 with hIgG1 constant region 950; also called REGN281; 318518-1A10-D8
Broadly, the IC50 is the concentration that gives 50% inhibition. A higher IC50 goes with a need for much substance. The term Kd denotes the free concentration of one partner at which half of the binding sites on the other are occupied at equilibrium, for simple one-to-one binding. As usually defined, the koff is a measure of how fast the partners let go of each other. Broadly, the kon is the second-order rate constant of association. Regarding B1, the concentration for half-maximal inhibition (IC50) with dimeric hDII4-hFc [1] is 0.042 nM. The “Notch-inducible luciferase assay IC50 (pM), 1 nM hDII4-hFc” value in the assay with dimeric hDII4-hFc [2] stood at 50.5 pM. In the assay with dimeric hDII4-hFc [2], the “Notch-inducible luciferase assay IC50 (pM), 1.5 nM hDII4-hFc” value was found to be 78.7 pM. For the same molecule, the binding result in assay [3] is given as “binds”; in assay [4], “binds”; in assay [5], “binds”; in assay [6], “binds”; with mDII4-mFc it was “no binding (tested: 100 µg/ml)”. For the same molecule, the Kd came out at 0.148 nM in [7], 0.307 nM in assay [8] and 0.329 nM with M. mulatta DII4 monomer. For the same molecule, the results for the koff (in assay [7]; in [8]; with M. mulatta DII4 monomer) were 2.3e-05 s⁻¹, 2.04e-05 s⁻¹ and 3.05e-05 s⁻¹, respectively. For the same molecule, the kon is 156000 M⁻¹ s⁻¹ in [7], 66400 M⁻¹ s⁻¹ in [8] and 92700 M⁻¹ s⁻¹ in the assay with M. mulatta DII4 monomer.

B2: REGN422 (antibody, human IgG4 S228P)
heavy: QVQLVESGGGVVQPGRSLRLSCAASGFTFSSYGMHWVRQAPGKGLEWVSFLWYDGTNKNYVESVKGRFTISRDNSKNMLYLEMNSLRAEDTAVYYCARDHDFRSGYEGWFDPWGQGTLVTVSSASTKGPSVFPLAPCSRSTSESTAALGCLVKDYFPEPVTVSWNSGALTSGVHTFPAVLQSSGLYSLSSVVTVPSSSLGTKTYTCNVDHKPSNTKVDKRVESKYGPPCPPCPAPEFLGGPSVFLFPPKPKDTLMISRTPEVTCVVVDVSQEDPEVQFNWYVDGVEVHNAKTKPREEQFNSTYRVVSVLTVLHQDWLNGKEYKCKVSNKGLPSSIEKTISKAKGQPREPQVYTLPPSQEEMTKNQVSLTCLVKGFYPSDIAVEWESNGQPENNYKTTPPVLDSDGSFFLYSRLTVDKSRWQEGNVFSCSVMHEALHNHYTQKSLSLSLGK
VL: B1 VL with M4L
notes: HCVR 901 with modified hIgG4 constant region 952
For B2, the IC50 with dimeric hDII4-hFc [1] stood at 0.039 nM. Further, the “Notch-inducible luciferase assay IC50 (pM), 1 nM hDII4-hFc” value with dimeric hDII4-hFc [2] is 88.2 pM. In the assay with dimeric hDII4-hFc [2], the “Notch-inducible luciferase assay IC50 (pM), 1.5 nM hDII4-hFc” value was determined as 131 pM. Further, the binding result in [3] was “binds”; in [4] it was “binds”; in assay [5], “binds”; in assay [6], “binds”; in the assay with mDII4-mFc, “no binding (tested: 100 µg/ml)”. Further, the Kd was determined as 0.144 nM in assay [7], 0.36 nM in assay [8] and 0.375 nM in the assay with M. mulatta DII4 monomer. Besides, the koff in assay [7] amounted to 2.36e-05 s⁻¹; in assay [8], 2.88e-05 s⁻¹; with M. mulatta DII4 monomer, 3.41e-05 s⁻¹. The kon in assay [7] was determined as 164000 M⁻¹ s⁻¹; in assay [8], 80100 M⁻¹ s⁻¹; with M. mulatta DII4 monomer, 92700 M⁻¹ s⁻¹.

B3: REGN421 (antibody, human IgG1)
heavy: not shown
VL: B1 VL with M4L
notes: HCVR 901 with hIgG1 constant region 950
With B3, the 50% inhibitory concentration (IC50) with dimeric hDII4-hFc [1] was determined as 0.045 nM. In the assay with dimeric hDII4-hFc [2], the “Notch-inducible luciferase assay IC50 (pM), 1 nM hDII4-hFc” value came out at 54.4 pM. In the assay with dimeric hDII4-hFc [2], the “Notch-inducible luciferase assay IC50 (pM), 1.5 nM hDII4-hFc” value is 87.3 pM. The binding result in [3] was “binds”; in assay [4] it was “binds”; in assay [5] it was “binds”; in assay [6], “binds”; with mDII4-mFc, “no binding (tested: 100 µg/ml)”. For the same molecule, the Kd amounted to 0.133 nM in assay [7], 0.278 nM in [8] and 0.333 nM with M. mulatta DII4 monomer. The off-rate (koff) was found to be 2.17e-05 s⁻¹ in assay [7], 2.02e-05 s⁻¹ in [8] and 3.23e-05 s⁻¹ with M. mulatta DII4 monomer. Besides, the results for the on-rate constant (kon) (in assay [7]; in assay [8]; with M. mulatta DII4 monomer) were 163000 M⁻¹ s⁻¹, 72800 M⁻¹ s⁻¹ and 97000 M⁻¹ s⁻¹, respectively.
